These results are taken from patent US20150087809A1.

Read-outs that look alike come from different tables or passages of the source.

Test [1] has as its target T1, HLA-A24 type molecule (product of the HLA-A*2402 gene) (human).
The target in test [2] is T1, HLA-A24 type molecule (product of the …). This is another data set of the same source.
The target is the same in test [3]. The source holds these as a separate data set.

As to SYTWTGALI (modifications not checked) [SEQ ID NO 14], the -log Kd in test [1] is 7.13 -log Kd (M). In the case of PLLRDEVTF (modifications not checked) [SEQ ID NO 59], the -log Kd in test [2] was 5.09 -log Kd (M). Consider ITYSTYCKF (modifications not checked) [SEQ ID NO 40], for which, in test [1], the -log Kd was 6.98 -log Kd (M). Consider VILDSFEPL (modifications not checked) [SEQ ID NO 84], for which the -log Kd in test [3] was 5 -log Kd (M). On to LLKRLHQWI (modifications not checked) [SEQ ID NO 65], for which the -log Kd in test [2] is 6.86 -log Kd (M).

As for SYTWTGALI (modifications not checked) [SEQ ID NO 108], in test [3], the -log Kd is 7.13 -log Kd (M). As to ILLGPADSF (modifications not checked) [SEQ ID NO 75], in test [2], the -log Kd is 5.5 -log Kd (M). For the molecule VLADFKTWL (modifications not checked) [SEQ ID NO 112], in test [3], the -log Kd is 6.63 -log Kd (M).

LLKRLHQWI (modifications not checked) [SEQ ID NO 104]: the -log Kd in test [3] was 6.86 -log Kd (M). On to GLIHLHQNI (modifications not checked) [SEQ ID NO 54], for which, in test [2], the -log Kd was 5.86 -log Kd (M).

For the molecule LLSTTEWQI (modifications not checked) [SEQ ID NO 42], in test [1], the -log Kd is 8.34 -log Kd (M). Turning to RYAPACKPL (modifications not checked) [SEQ ID NO 110], the -log Kd in test [3] was 6.76 -log Kd (M). Take AQPGYPWPL (modifications not checked) [SEQ ID NO 58]: in test [2], the -log Kd is 5.36 -log Kd (M). Consider PLLRDEVTF (modifications not checked) [SEQ ID NO 87], for which the -log Kd in test [3] was 5.09 -log Kd (M). ILPCSFTTL (modifications not checked) [SEQ ID NO 1]: the -log Kd in test [1] was 7.66 -log Kd (M). On to VILDSFEPL (modifications not checked) [SEQ ID NO 45], for which the -log Kd in test [2] was 5 -log Kd (M). With ILLGPADSF (modifications not checked) [SEQ ID NO 27], the -log Kd in test [1] was 5.5 -log Kd (M). Regarding SYTWTGALI (modifications not checked) [SEQ ID NO 61], the -log Kd in test [2] is 7.13 -log Kd (M). Turning to WHYPCTVNF (modifications not checked) [SEQ ID NO 92], the -log Kd in test [3] was 6.39 -log Kd (M).

As for ILMTHFFSI (modifications not checked) [SEQ ID NO 13], the -log Kd in test [1] is 7.9 -log Kd (M).

Turning to VILDSFDPI (modifications not checked) [SEQ ID NO 2], the -log Kd in test [1] was 5.32 -log Kd (M). With LMTHFFSIL (modifications not checked) [SEQ ID NO 64], the -log Kd in test [2] is 5.92 -log Kd (M). For GLIHLHQNI (modifications not checked) [SEQ ID NO 94], the -log Kd in test [3] was 5.86 -log Kd (M). LMTHFFSIL (modifications not checked) [SEQ ID NO 18]: the -log Kd in test [1] was 5.92 -log Kd (M). Still for that read-out and setting: then LLKRLHQWI (modifications not checked) [SEQ ID NO 19], with 6.86 -log Kd (M).

Consider WLRDVWDWI (modifications not checked) [SEQ ID NO 106], for which, in test [3], the -log Kd was 6.34 -log Kd (M).

For WHYPCTVNF (modifications not checked) [SEQ ID NO 8], the -log Kd in test [1] was 6.39 -log Kd (M).

As for AYYSMVGNW (modifications not checked) [SEQ ID NO 67], in test [2], the -log Kd was 6.47 -log Kd (M).

With AQPGYPWPL (modifications not checked) [SEQ ID NO 12], the -log Kd in test [1] is 5.36 -log Kd (M).

Take VFPDLGVRV (modifications not checked) [SEQ ID NO 123]: the -log Kd in test [3] is 6.74 -log Kd (M). On to ILMTHFFSI (modifications not checked) [SEQ ID NO 60], for which the -log Kd in test [2] is 7.9 -log Kd (M). For the molecule ILLGPADSF (modifications not checked) [SEQ ID NO 100], the -log Kd in test [3] is 5.5 -log Kd (M).

With LMCAVHPEL (modifications not checked) [SEQ ID NO 55], the -log Kd in test [2] is 6.59 -log Kd (M). Take NFSRCWVAL (modifications not checked) [SEQ ID NO 37]: the -log Kd in test [1] was 6.28 -log Kd (M). Consider TVLADFKTW (modifications not checked) [SEQ ID NO 90], for which the -log Kd in test [3] was 6.52 -log Kd (M).

For the molecule WHYPCTVNF (modifications not checked) [SEQ ID NO 52], the -log Kd in test [2] is 6.39 -log Kd (M). In the case of LLSTTEWQI (modifications not checked) [SEQ ID NO 109], in test [3], the -log Kd was 8.34 -log Kd (M).

On to RYAPACKPL (modifications not checked) [SEQ ID NO 71], for which, in test [2], the -log Kd was 6.76 -log Kd (M). As to ITYSTYGKF (modifications not checked) [SEQ ID NO 107], the -log Kd in test [3] (remark: other sources report otherwise) is 6.37 -log Kd (M). As for ILMTHFFSI (modifications not checked) [SEQ ID NO 96], the -log Kd in test [3] is 7.9 -log Kd (M). On to WLRDVWDWI (modifications not checked) [SEQ ID NO 76], for which the -log Kd in test [2] was 6.34 -log Kd (M). Turning to AYYSMVGNW (modifications not checked) [SEQ ID NO 22], the -log Kd in test [1] is 6.47 -log Kd (M). As to AFYGVWPLL (modifications not checked) [SEQ ID NO 98], the -log Kd in test [3] is 7.73 -log Kd (M). On the same count and under the same terms, then AYYSMVGNW (modifications not checked) [SEQ ID NO 102], with 6.47 -log Kd (M).

Regarding TVLADFKTW (modifications not checked) [SEQ ID NO 56], the -log Kd in test [2] is 6.52 -log Kd (M).

As to AFYGVWPLL (modifications not checked) [SEQ ID NO 49], the -log Kd in test [2] is 7.73 -log Kd (M).
